Measured values: US6096512
Like-named read-outs stand apart in the source and are kept apart here.

Legend:
[1] = target: bovine apomucin (deglycosylated bovine submaxillary mucin) (bovine)
[2] = target: serine containing acceptor peptide …
[3] = target: serine containing acceptor peptide …; remark: listed apart in the source
[4] = target: bovine apomucin (deglycosylated bovine submaxillary mucin) (bovine); remark: listed apart in the source

Total activity (U), cell lysate [1] [U]	Km [2] [mM]	Km [3] [mM]	specific activity of the purified enzyme preparation [4] [U/mg protein]	Substance
16.2				cloned full-length (membrane bound) bovine GalNAc-transferase expressed in Sf9 cells (enzyme)
	3.5	3.6	2160	soluble, secreted recombinant bovine GalNAc-transferase GalNAcTs (enzyme)
